T1: B7H3 on U251 cells (UniProt Q5ZPR3 29-534, limits assumed)
T1 construct: whole, on cells; also called U251 cells (expressing B7H3)
T1 sequence (looked up): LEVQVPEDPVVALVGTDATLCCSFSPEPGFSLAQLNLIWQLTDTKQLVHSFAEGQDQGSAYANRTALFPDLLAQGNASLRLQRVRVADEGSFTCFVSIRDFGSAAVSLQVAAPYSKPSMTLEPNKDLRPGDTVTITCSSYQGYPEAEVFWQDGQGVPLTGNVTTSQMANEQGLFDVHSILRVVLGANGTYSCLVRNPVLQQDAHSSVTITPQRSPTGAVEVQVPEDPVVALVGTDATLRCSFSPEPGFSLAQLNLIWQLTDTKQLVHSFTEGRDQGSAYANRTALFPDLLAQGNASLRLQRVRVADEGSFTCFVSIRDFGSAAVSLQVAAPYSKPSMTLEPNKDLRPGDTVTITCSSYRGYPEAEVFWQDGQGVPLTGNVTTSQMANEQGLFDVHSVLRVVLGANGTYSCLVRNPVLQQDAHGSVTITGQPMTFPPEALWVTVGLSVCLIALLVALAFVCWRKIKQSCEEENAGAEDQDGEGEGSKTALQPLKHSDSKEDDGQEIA

T2: B7H3-Fc recombinant protein (human, UniProt Q5ZPR3 29-461)
T2 construct: also called human B7H3 protein; not shown: Fc part of the B7H3-Fc recombinant protein
T2 sequence (looked up): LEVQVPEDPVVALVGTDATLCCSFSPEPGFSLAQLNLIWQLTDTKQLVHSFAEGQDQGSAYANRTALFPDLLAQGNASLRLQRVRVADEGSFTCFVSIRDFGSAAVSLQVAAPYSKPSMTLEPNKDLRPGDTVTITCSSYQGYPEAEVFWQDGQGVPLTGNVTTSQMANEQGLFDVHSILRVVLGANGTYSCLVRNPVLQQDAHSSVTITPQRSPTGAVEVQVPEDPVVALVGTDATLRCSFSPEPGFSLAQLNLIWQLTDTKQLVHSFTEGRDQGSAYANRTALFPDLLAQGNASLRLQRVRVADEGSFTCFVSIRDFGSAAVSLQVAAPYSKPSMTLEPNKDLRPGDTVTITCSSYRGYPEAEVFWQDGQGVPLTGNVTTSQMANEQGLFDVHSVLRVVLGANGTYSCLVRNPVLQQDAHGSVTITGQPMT


Legend:
B7H3 on U251 cells = molecular target: T1, B7H3 on U251 cells; test: flow cytometry on U251 cells (expressing B7H3), MFI against antibody concentration
Protocol: Recombinant antibodies with different concentrations were incubated with U251 cells (expressing B7H3), and the binding of the antibodies to the cell surface was assayed by the mean fluorescence intensity (MFI) of the cells. From the results shown in FIG. 2, the 1A5 and 1G7 antibodies and the humanized antibodies thereof can effectively bind to the surface of the U251 cells.

[1] = molecular target: T2, B7H3-Fc recombinant protein; test: SPR, Biacore 8K, CM5 chip
Protocol: The mouse anti-human IgG (Fc) antibody was diluted with the immobilization reagent (sodium acetate, pH 5.0): 950 μL of the immobilization reagent was added to 50 μL of the mouse anti-human IgG (Fc) antibody. The dilution was used for immobilization in eight channels. First, the surface of the CM5 chip was activated for 360 s with EDC and NHS at a flow rate of 10 μL/min. Then, the mouse anti-human IgG (Fc) antibody was injected into the channels (channels 1-8, Fc1,2) at a flow rate of 10 μL/min for about 360 s, with the level of immobilization at about 7000 to 14,000 RU. Finally, the chip was blocked with ethanolamine at 10 μL/min for 420 s.
The human B7H3 protein was diluted 2-fold with the running reagent. The diluted human B7H3 protein was injected into the experimental channels and the reference channels in sequence at a flow rate of 30 μL/min, and corresponding periods of association and dissociation were allowed. The association and dissociation steps were all performed in the running reagent. After each concentration analysis, the chip needed to be regenerated with magnesium chloride at a flow rate of 20 μL/min for 30 s to wash away the ligand and undissociated analyte. For the next concentration analysis, the experimental channels needed to recapture the same amount of ligand.
A KD value was calculated for each sample using Biacore 8K analysis software Biacore Insight Evaluation Software. The reference channels (Fc1) were used for background subtraction.

binding result (B7H3 on U251 cells)	Kd [1] [nM]	koff [1] [s⁻¹]	kon [1] [M⁻¹ s⁻¹]	EC50 (read off the curve) (B7H3 on U251 cells) [µg/mL]	Binder
binds	–	–	–	–	hu1A5 (VHH, a member of the group m3 (humanized antibodies of 1A5 and 1G7); also called humanized antibody of 1A5) VHH: QVQLVESGGGLVQPGGSLRLSCAASGRIFSNYSVGWFRQAPGKEREFVAAIIWSTGTTYYADSVKGRFTISRDNSKNTLYLQMNSLRAEDTAVYYCAASFKYSGIYGREADFGSWGQGTLVTVSS
binds	–	–	–	–	hu1G7 (VHH, a member of the group m3 (humanized antibodies of 1A5 and 1G7); also called humanized antibody of 1G7) VHH: AVQLVESGGGLVQPGGSLRLSCAASGRIFSNYAMGWFRQAPGKEREFVAAIIGSTGTVYYADSVKGRFTISRDNSKNTLYLQMNSLRAEDTAVYYCAASFRYSGIYGREADFVSWGQGTLVTVSS
binds	7.39	0.0045	609000	–	B7H3 single-domain antibody 1A5 (VHH, Called a single-domain antibody / recombinant antibody; also called 1A5 antibody; anti-B7H3 VHH antibody) VHH: QAQLVESGGGLVQTGGSLRLSCAASGRIFSNYSVGWFRQAPGKEREFVAAIIWSTGTTNLADPMKGRFTISRDNAKNTVVLQMNSLKPEDTAIYYCAASFKYSGIYGREADFGSWGQGTQVTVSS
–	5.38	0.00618	1.15e+06	~4	B7H3 single-domain antibody 1G7 (VHH, Called a single-domain antibody / recombinant antibody; also called 1G7 antibody; anti-B7H3 VHH antibody) VHH: AVQLVESGGGLVQTGGSLRLSCADSGRIFSNYAMGWFRQAPGKEREFVAAIIGSTGTVNYADSMKGRFTISRDNAKNTVVLQMNSLKPEDTAIYYCAASFRYSGIYGREADFVSWGQGTQVTVSS
